The data set concerns the molecule itself. In words: crystal structure; PPS-S1-Mava (crystal type B): S1 with Mg.ADP.BeFx and 5 mM Mavacamten, trypsin 1:500 (w:w), hanging drop at 4 °C, 20.5% PEG3350, 7.5% NaTacsimate pH 6.0, 5 mM TCEP; two molecules per asymmetric unit; 2.61 Å.

B1: Bovine β-cardiac myosin S1 fragment, heavy chain (domain or fragment, UniProt Q9BE39 1-810, looked up)
chain: MVDAEMAAFGEAAPYLRKSEKERLEAQTRPFDLKKDVFVPDDKEEFVKATILSREGGKVTAETEHGKTVTVKEDQVLQQNPPKFDKIEDMAMLTFLHEPAVLYNLKERYASWMIYTYSGLFCVTINPYKWLPVYNAEVVAAYRGKKRSEAPPHIFSISDNAYQYMLTDRENQSILITGESGAGKTVNTKRVIQYFAVIAAIGDRSKKEQATGKGTLEDQIIQANPALEAFGNAKTVRNDNSSRFGKFIRIHFGATGKLASADIETYLLEKSRVIFQLKAERDYHIFYQILSNKKPELLDMLLITNNPYDYAFISQGETTVASIDDAEELMATDNAFDVLGFTTEEKNSMYKLTGAIMHFGNMKFKLKQREEQAEPDGTEEADKSAYLMGLNSADLLKGLCHPRVKVGNEYVTKGQNVQQVVYAKGALAKAVYERMFNWMVTRINATLETKQPRQYFIGVLDIAGFEIFDFNSFEQLCINFTNEKLQQFFNHHMFVLEQEEYKKEGIEWEFIDFGMDLQACIDLIEKPMGIMSILEEECMFPKATDMTFKAKLFDNHLGKSSNFQKPRNIKGKPEAHFSLIHYAGTVDYNIIGWLQKNKDPLNETVVDLYKKSSLKMLSSLFANYAGFDTPIEKGKGKAKKGSSFQTVSALHRENLNKLMTNLRSTHPHFVRCIIPNETKSPGVIDNPLVMHQLRCNGVLEGIRICRKGFPNRILYGDFRQRYRILNPAAIPEGQFIDSRKGAEKLLGSLDIDHNQYKFGHTKVFFKAGLLGLLEEMRDERLSRIITRIQAQSRGVLSRMEFKKLLERRDS
notes: Native protein cut by proteases, not a recombinant construct; also called bovine cardiac S1 fragment; PPS-S1-Mava; source: purified from frozen bovine heart (Pel-Freez Biologicals); limited chymotryptic digestion of the full-length myosin, Mono-Q; trypsin present in the crystallization drops
B1: the binding result is “binds”.

The values above are taken from article PMC11161628, “Omecamtiv mecarbil and Mavacamten target the same myosin pocket despite opposite effects in heart contraction” (Nature Communications, 2024).
